Values of other authors, collected in US20080038276A1, “INHIBITORS OF PLASMA KALLIKREIN” (Activesite Pharmaceuticals, Inc., priority 2006, published 2008).

What was measured:
Conditions in all cases: in vivo; cited from earlier work
sepsis patients = test system: sepsis patients
[1] = test system: LPS or bacterial induced sepsis in animals
mouse model of MCAO = test system: mouse model of MCAO

B1: C1-INH: a physiological inhibitor (protein, UniProt P05155 23-500, looked up)
Plasma protease C1 inhibitor: NPNATSSSSQDPESLQDRGEGKVATTVISKMLFVEPILEVSSLPTTNSTTNSATKITANTTDEPTTQPTTEPTTQPTIQPTQPTTQLPTDSPTQPTTGSFCPGPVTLCSDLESHSTEAVLGDALVDFSLKLYHAFSAMKKVETNMAFSPFSIASLLTQVLLGAGENTKTNLESILSYPKDFTCVHQALKGFTTKGVTSVSQIFHSPDLAIRDTFVNASRTLYSSSPRVLSNNSDANLELINTWVAKNTNNKISRLLDSLPSDTRLVLLNAIYLSAKWKTTFDPKKTRMEPFHFKNSVIKVPMMNSKKYPVAHFIDQTLKAKVGQLQLSHNLSLVILVPQNLKHRLEDMEQALSPSVFKAIMEKLEMSKFQPTLLTLPRIKVTTSQDMLSIMEKLEFFDFSYDLNLCGLTEDPDLQVSAMQHQTVLELTETGVEAAAASAISVARTLLVFEVQQPFLFVLWDQQHKFPVFMGRVYDPRA
Sepsis patients
  clinical outcome in sepsis patients: Clinical improvement
[1]
  vascular permeability in multiple organs and lesions: reduce
Mouse model of MCAO
  infarct size: reduced
